Positions count from the first letter of the chain named.
B1: scFv-E040-msFcγ2c (Fc fusion)
chain: DADPAQAAELVMTQSPDSLAVSLGERATINCKSSQSVLYSSNNENYLAWYQQKPGQPPKLLIYWASTRESGVPDRFSGSGSGTDFTLTINSVQAEDVAVYYCQQYFMTPITFGQGTRLEIKGGSSRSSSSGGGGSGGGGEVQLLESGGALVQPGRSLRLSCRTSGLNFGDYPINWVRQAPGKGLEWVGFIKSKSYGVTTEFAASVEGRFTISRDDSRGIAYLQMNSLKTEDTAVYYCTSSSGFLYYFDYWGQGTLVTVSSASTKGPSVTSGQAGRKLEPRVPITQNPCPPLKECPPCAAPDLLGGPSVFIFPPKIKDVLMISLSPMVTCVVVDVSEDDPDVQISWFVNNVEVHTAQTQTHREDYNSTLRVVSALPIQHQDWMSGKEFKCKVNNRALPSPIEKTISKPRGPVRAPQVYVLPPPAEEMTKKEFSLTCMITGFLPAEIAVDWTSNGRTEQNYKNTATVLDSDGSYFMYSKLRVQKSTWERGSLFACSVVHEGLHNHLTTKTISRSLGK
B2: scFv-D005-msFcγ2c (Fc fusion)
chain: B1 chain with S40T, E44K, A48G, K59N, L144V
B3: scFv-F052-msFcγ2c (Fc fusion)
chain: B1 chain with L10R, S18A, V37L, E44K, Q52K, D84E, R117K, E140Q, L144Q

The binders below were run against T1, M2e (SEQ ID NO:48) conjugated to RNAse A (Influenza A virus (consensus of H1, H2 …)) (assay: ELISA, apparent affinity, purified scFv-msFcγ2c on immobilised RNAse A-M2e).
With B1 the EC50 was 0.0883 nM. B2 was tested, and the EC50 was 0.0815 nM. Binder B3 has an EC50 of 0.0506 nM.

These binders were tested against T1, M2e (SEQ ID NO:48) conjugated to RNAse A (assay: not given).
B1 gave a Kd of 13 pM. B2 was tested, and the Kd was 4 pM. Binder B3 has a Kd of 6 pM.

— patent US20110268740A1 (INTERCELL, published 2011)
